Reference: paper PMC9800282 (Nature Medicine, 2022)

Experiments:
[1] = molecular target: T1, recombinant human α5β1 integrin (human, UniProt P08648 42-1049; P05556 21-728); test: SPR; Biacore T200; LNA043 (~3,000 RU), FN1 or VTN (~500 RU) amine-coupled to CM5; integrins as analytes 0.6–10 μM, single-cycle kinetics, 37 °C, 1× HBS-N, 0.005% Tween 20, 1 mM MgCl2, 1 mM CaCl2, 2 mM MnCl2; 1:1 binding fit; conditions: both partners purified
T1 construct: integrin α5 subunit, human, recombinant; integrin β1 subunit, human, recombinant; also called rhα5β1; integrin α5β1; source: bought: R&D Systems (co-IP)

[2] = molecular target: T2, recombinant human αvβ3 integrin (human, UniProt P06756 31-1048; P05106 27-718); test: as above; conditions: both partners purified
T2 construct: integrin αv subunit, human, recombinant; integrin β3 subunit, human, recombinant; also called rhαvβ3; integrin αvβ3; source: bought: R&D Systems (co-IP)
T2 sequence (P06756 31-1048, chain 1 of 2): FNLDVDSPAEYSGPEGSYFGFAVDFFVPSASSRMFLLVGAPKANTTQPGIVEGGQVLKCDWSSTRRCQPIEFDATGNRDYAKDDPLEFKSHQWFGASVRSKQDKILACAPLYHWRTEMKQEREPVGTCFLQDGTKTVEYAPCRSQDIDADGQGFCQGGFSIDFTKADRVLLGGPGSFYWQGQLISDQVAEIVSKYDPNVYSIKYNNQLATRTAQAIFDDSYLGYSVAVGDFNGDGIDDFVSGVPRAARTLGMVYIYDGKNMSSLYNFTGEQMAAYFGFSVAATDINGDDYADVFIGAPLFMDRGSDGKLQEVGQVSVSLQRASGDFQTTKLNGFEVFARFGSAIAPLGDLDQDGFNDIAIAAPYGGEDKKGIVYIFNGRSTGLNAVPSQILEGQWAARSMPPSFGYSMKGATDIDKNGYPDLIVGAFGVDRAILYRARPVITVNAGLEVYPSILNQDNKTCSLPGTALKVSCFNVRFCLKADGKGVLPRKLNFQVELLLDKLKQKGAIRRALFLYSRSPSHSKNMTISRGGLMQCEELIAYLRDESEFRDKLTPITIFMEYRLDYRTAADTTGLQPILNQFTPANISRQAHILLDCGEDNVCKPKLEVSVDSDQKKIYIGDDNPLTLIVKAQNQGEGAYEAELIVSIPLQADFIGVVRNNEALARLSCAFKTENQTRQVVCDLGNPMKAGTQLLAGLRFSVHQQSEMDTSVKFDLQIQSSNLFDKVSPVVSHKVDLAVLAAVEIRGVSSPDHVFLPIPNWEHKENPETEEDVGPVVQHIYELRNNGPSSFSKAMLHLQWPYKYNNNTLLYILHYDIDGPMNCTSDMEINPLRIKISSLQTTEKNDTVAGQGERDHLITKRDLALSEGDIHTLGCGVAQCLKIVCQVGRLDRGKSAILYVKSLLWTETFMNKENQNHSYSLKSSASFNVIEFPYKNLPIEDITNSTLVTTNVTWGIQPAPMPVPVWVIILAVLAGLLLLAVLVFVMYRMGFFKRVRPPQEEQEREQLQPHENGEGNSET
T2 sequence (P05106 27-718, chain 2 of 2): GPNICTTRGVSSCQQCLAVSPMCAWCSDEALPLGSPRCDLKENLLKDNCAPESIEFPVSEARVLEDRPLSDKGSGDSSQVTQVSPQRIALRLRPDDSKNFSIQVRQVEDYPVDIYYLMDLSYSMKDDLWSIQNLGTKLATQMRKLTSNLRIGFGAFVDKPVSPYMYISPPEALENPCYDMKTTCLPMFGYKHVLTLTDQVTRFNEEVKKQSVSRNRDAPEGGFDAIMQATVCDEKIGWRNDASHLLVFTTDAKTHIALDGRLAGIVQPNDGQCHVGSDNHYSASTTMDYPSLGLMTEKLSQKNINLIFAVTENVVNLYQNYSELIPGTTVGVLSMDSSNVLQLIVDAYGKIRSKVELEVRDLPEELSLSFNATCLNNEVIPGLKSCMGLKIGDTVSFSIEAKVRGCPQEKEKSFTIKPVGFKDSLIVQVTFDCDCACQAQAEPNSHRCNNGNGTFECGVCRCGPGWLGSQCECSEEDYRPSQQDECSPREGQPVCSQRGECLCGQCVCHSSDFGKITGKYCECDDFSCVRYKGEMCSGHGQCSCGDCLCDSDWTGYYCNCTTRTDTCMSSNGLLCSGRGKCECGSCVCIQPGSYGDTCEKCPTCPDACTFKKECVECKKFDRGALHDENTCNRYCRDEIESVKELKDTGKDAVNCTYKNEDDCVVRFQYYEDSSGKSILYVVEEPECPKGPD

B1: LNA043 (domain or fragment)
chain: IPAECTTIYNRGEHTSGMYAIRPSNSQVFHVYCDVISGSPWTLIQHRIDGSQNFNETWENYKYGFGRLDGEFWLGLEKIYSIVKQSNYVLRIELEDWKDNKHYIEYSFYLGNHETNYTLHLVAITGNVPNAIPENKDLVFSTWDHKAKGHFNCPEGYSGGWWWHDECGENNLNGKYNKPRAQSKPERRRGLSWKSQNGRLYSIKSTKMLIHPTDSESFE
B1 showed a Kd [1] of about 1.5 µM and a Kd [2] of about 7.9 µM.
